Residue numbers refer to the chain shown, from its start. Each block holds one binder with its values, some of them ahead of it.
Assays:
[1] = biological target: T1, Strep tagged recombinant human PD-1 (human, UniProt Q15116 25-167, limits assumed); assay: SPR Biacore T200, single cycle kinetics; Strep tagged PD-1 amine coupled to CM-5 (14 RU)
T1 construct: also called Strep tagged human PD-1; not shown: Strep tag
Procedure: Single cycle kinetics assays were used to study the interaction between human PD-1 with Humabody® on a Biacore T200 instrument (GE Healthcare). Strep tagged recombinant human PD-1 was amine coupled to one flow cell of a CM-5 chip to create a low density surface (14 RU) using standard Biacore reagents. For the reference flow cell, a blank immobilisation was carried out. A five-point, three-fold dilution series of each Humabody® was made with a top concentration of 25 nM. The binding kinetics were followed by flowing the Humabody® over the chip surface in HBS EP+ buffer at a flow rate of 30 μl/min. The contact time for each of the association steps was 180 seconds and the dissociation step was 3300 seconds. The data was fitted to a 1:1 binding model after double reference subtraction using the Biacore T200 Evaluation software.

[2] = biological target: T2, cynomolgus PD-1 recombinant protein (cynomolgus); assay: HTRF binding assay; 2 nM PD-1, anti human-Fc cryptate and anti His-D2
T2 construct: also called cyno PD-1; cynomolgus PD-1 (Acro Biosystems cat no. PD-1-05254)
Procedure: Purified VH were tested for their ability to bind to human PD-1 (R&D Systems cat no. 1086-PD), cynomolgus PD-1 (Acro Biosystems cat no. PD-1-05254) and mouse PD-1 (R&D Systems cat no. 1021-PD) in an HTRF Binding assay format. All reagents and serially diluted VH were prepared in assay buffer containing PBS, 0.1% BSA and 0.4M Potassium Fluoride. Samples or assay buffer (non-specific binding) were incubated with 2 nM human/cynomolgus or mouse PD-1, 1 nM Anti human-Fc Cryptate PAb (Cisbio cat. no. 61HFCKLB) and 30 nM anti His-D2 (CisBio cat no 61HISDLA) in black 384-shallow well assay plates for a minimum of 3 hours at room temperature. Time-resolved fluorescent emission at 620 nm and 665 nm was measured following excitation at 337 nm on the BMG PHERAstar plate reader. The HTRF ratio were calculated ((665 nm emission/620 nm emission)*10000) and the data corrected for (non-specific binding) to give the specific binding signal.

T1 sequence (Q15116 25-167 limits assumed): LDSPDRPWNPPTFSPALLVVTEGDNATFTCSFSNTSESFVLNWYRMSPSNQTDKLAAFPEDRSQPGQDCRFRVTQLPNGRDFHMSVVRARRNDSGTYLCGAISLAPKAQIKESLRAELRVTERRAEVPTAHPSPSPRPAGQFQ

kon [1]: 176000 M⁻¹ s⁻¹
B1: Humabody® 1.80 (VHH)
VHH: EVQLVESGGGLVKPGGSLRLSCAASGFTFSDSSMTWMRQAPGKGLEWVSYISSGGGVKFYADSVKGRFTISRDNAKNSLYLQMNSLRAEDTAVYYCAREAPLRLGESPHDAFDISGQGTMVTVSS
notes: human VH single domain antibody

EC50 [2]: 6.3 nM
B2: Humabody® 1.1 (VHH)
VHH: B1 VHH with E1Q, S32Y, S33T, S53T, G56T, V57I, F59Y, A61T, E89D, S115W
notes: human VH single domain antibody; also called clone 1.1

EC50 [2]: 0.75 nM
B3: Humabody® 1.57 (VHH)
VHH: B1 VHH with E1Q, S32N, K58I, E89D
notes: as for B1

EC50 [2]: 4.1 nM
B4: Humabody® 1.92 (VHH)
VHH: B1 VHH with S32E
notes: as for B1
